Test results taken from patent publication US20080161234A1, “Composition Comprising Lactic Acid and Lactoferrin” (priority 2004, published 2008).

Tests used:
Type in all cases: cell-based
G. vaginalis = assay: Minimal bactericidal concentration (MBC99) of LF on G. vaginalis strains; details: concentration at which 99% killing was obtained, fivefold serial steps
Method: (§1) G. vaginalis and P. bivia were cultured on chocolate-GL-plates for 48 h in anaerobic milieu. The bacteria were harvested and suspended in BHI for further incubation (4 hours at 37° C.). The bacteria were washed twice in Bactopeptone (BP, 0.2%). The concentration was adjusted spectrophotometrically and diluted to 1×10^7 bacteria per ml.
(§2) The procedure for the microbicidal assay with regard to G. vaginalis and P. bivia was as described above except that the microplate was incubated under anaerobic conditions (2 h). Thereafter droplets of the solutions were analyzed for viable bacteria on blood agar plates after 48 h of anaerobic incubation at 37° C.
Instead of 0.2% BP 0.34% BHI was used. […] The plate was incubated for 20 hours.

E. coli 06 = assay: Microbicidal microplate-droplet assay, E. coli; design: key to E. coli killing, growth grade in droplet assay: +++ means that the number of colony forming units (CFU) contained within 5 ul of a droplet formed a smooth layer of bacteria; ++ means that a “ruffled” area is seen; 0 means that no CFU were found in triplicate samples of 5 ul (>99.95 killed of the inoculum)
Method: The bacterial strains S. aureus 1800 (CCUG 1800), E. coli 06, and the yeast C. albicans (ATCC 64549) have been used in the microplate assay. All microorganisms were cultured in brain heart infusion medium (BHI) on a shaker over night at 37° C. A volume of the culture was transferred to a new tube with BHI and incubated for two more h on the shaker. The bacteria were harvested in the log phase, washed once and thereafter suspended in the broth used for the microplate assay. The suspension was adjusted spectrophotometrically and diluted to a concentration of approximately 4×10^6 cells per ml at 650 nm. Washed cells were suspended in 0.2% BP (pH 7.0) or BHI medium diluted 1/10 (0.34%, pH 6.7-6.9) (Difco, USA). The concentration of bacterial or fungal cells was spectrophotometrically adjusted. LF or peptide, serially diluted in BHIdil or BP by twofold steps (unless otherwise stated), were added in triplicate to the wells of a microtiterplate (200 ul per well). The bacterial or yeast cell solutions were added in 10 ul volumes to give a final concentration of approximately 2×10^5 cells per ml. The concentration of the stock solution was always checked by viable counts. The microplate was incubated at 37° C. in a humid chamber for 2 h unless otherwise stated. Five ul were taken from each well and added as a drop onto a blood agar plate and incubated over night at 37° C. In some experiments more thorough viable counts were performed and the killing was expressed as remaining colony forming units in relation to the inoculum. The lower limit for detection of microorganisms was 200 CFU/ml. The antimicrobial activity of human LF was analysed by the microbicidal assay described above. Different microbes such as C. albicans, E. coli and S. aureus were analysed with respect to their survival in lactate (not containing the inert gel base, which makes the gel unsuitable for the microbicidal assay) containing LF.

L. gasseri = assay: Survival of L. gasseri in lactate with LF; details: LF 2 mg/ml, lactate 1%, 0.34% BHI, CO2, 3 h
Method: L. gasseri and L. jensenii were cultured on chocolate-agar plates for 24 h in 5% CO2/95% air. They were thereafter harvested and added to BHI (0.34%). After washing the bacterial solutions were adjusted spectrophotometrically and diluted to 8×10^6 bacteria/ml.
Washed cells were suspended in 0.2% BP (pH 7.0) or BHI medium diluted 1/10 (0.34%, pH 6.7-6.9) (Difco, USA). The concentration of bacterial or fungal cells was spectrophotometrically adjusted. LF or peptide, serially diluted in BHIdil or BP by twofold steps (unless otherwise stated), were added in triplicate to the wells of a microtiterplate (200 ul per well). The bacterial or yeast cell solutions were added in 10 ul volumes to give a final concentration of approximately 2×10^5 cells per ml. The concentration of the stock solution was always checked by viable counts. The microplate was incubated at 37° C. in a humid chamber for 2 h unless otherwise stated. Five ul were taken from each well and added as a drop onto a blood agar plate and incubated over night at 37° C. In some experiments more thorough viable counts were performed and the killing was expressed as remaining colony forming units in relation to the inoculum. The lower limit for detection of microorganisms was 200 CFU/ml.
L. gasseri survived better in the assay system than did L. jensenii. Undiluted lactate (5%) affected the survival of Lactobacillus.

[1] = system: P. bivia strains (Pb 57, Pb 62); assay: Growth inhibition of P. bivia by LF, spectrophotometric, 20 h anaerobic; details: LF in various concentrations, no lactate, 0.34% BHI
Method: The bacteria were incubated in 0.34% BHI under anaerobic conditions for 20 hours.
as §1, §2
The microbicidal assay was modified in order to obtain survival conditions for G. vaginalis and P. bivia. Instead of 0.2% BP 0.34% BHI was used. The bacterial strains were analyzed with only LF added in various concentrations to the wells (no lactate present). The plate was incubated for 20 hours.

B1: LF: LF from human milk purchased from Sigma; single chain iron-binding glycoprotein (protein, UniProt P02788 20-710, looked up)
Lactotransferrin: GRRRSVQWCAVSQPEATKCFQWQRNMRKVRGPPVSCIKRDSPIQCIQAIAENRADAVTLDGGFIYEAGLAPYKLRPVAAEVYGTERQPRTHYYAVAVVKKGGSFQLNELQGLKSCHTGLRRTAGWNVPIGTLRPFLNWTGPPEPIEAAVARFFSASCVPGADKGQFPNLCRLCAGTGENKCAFSSQEPYFSYSGAFKCLRDGAGDVAFIRESTVFEDLSDEAERDEYELLCPDNTRKPVDKFKDCHLARVPSHAVVARSVNGKEDAIWNLLRQAQEKFGKDKSPKFQLFGSPSGQKDLLFKDSAIGFSRVPPRIDSGLYLGSGYFTAIQNLRKSEEEVAARRARVVWCAVGEQELRKCNQWSGLSEGSVTCSSASTTEDCIALVLKGEADAMSLDGGYVYTAGKCGLVPVLAENYKSQQSSDPDPNCVDRPVEGYLAVAVVRRSDTSLTWNSVKGKKSCHTAVDRTAGWNIPMGLLFNQTGSCKFDEYFSQSCAPGSDPRSNLCALCIGDEQGENKCVPNSNERYYGYTGAFRCLAENAGDVAFVKDVTVLQNTDGNNNEAWAKDLKLADFALLCLDGKRKPVTEARSCHLAMAPNHAVVSRMDKVERLKQVLLHQQAKFGRNGSDCPDKFCLFQSETKNLLFNDNTECLARLHGKTTYEKYLGPQYVAGITNLKKCSTSPLLEACEFLRK
- MBC99 (G. vaginalis; G. vaginalis strain code 12): 500 µg/mL
- MBC99 (G. vaginalis; G. vaginalis strain code 17): >2500 µg/mL
- MBC99 (G. vaginalis; G. vaginalis strain code 23): 1000 µg/mL
- MBC99 (G. vaginalis; G. vaginalis strain code 51): 100 µg/mL
- MBC99 (G. vaginalis; G. vaginalis strain code 90): 4 µg/mL
- MBC99 (G. vaginalis; G. vaginalis strain code 96): 100 to 500 µg/mL
- E. coli killing, growth grade in droplet assay (E. coli 06; HLF 500 ug/ml, lactate 0.2%, 2 h incubation): ++
- E. coli killing, percentage of bacteria remaining in relation to the inoculum (E. coli 06; HLF 500 ug/ml, lactate 0.2%, 5 h incubation): 4%
- E. coli killing, growth grade in droplet assay (E. coli 06; HLF 500 ug/ml, lactate 1%, 2 h incubation): ++
- E. coli killing, percentage of bacteria remaining in relation to the inoculum (E. coli 06; HLF 500 ug/ml, lactate 1%, 5 h incubation): 5%
- E. coli killing, percentage of bacteria remaining in relation to the inoculum (E. coli 06; HLF 500 ug/ml, lactate 5%, 2 h incubation): 0 (0 means that no CFU were found in triplicate samples of 5 ul (>99.95 killed of the inoculum))
- E. coli killing, percentage of bacteria remaining in relation to the inoculum (E. coli 06; HLF 500 ug/ml, lactate 5%, 5 h incubation): 0 (0 means that no CFU were found in triplicate samples of 5 ul (>99.95 killed of the inoculum))
- E. coli killing, growth grade in droplet assay (E. coli 06; HLF 500 ug/ml, no lactal, 2 h incubation): +++
- E. coli killing, growth grade in droplet assay (E. coli 06; HLF 500 ug/ml, no lactal, 5 h incubation): +++
- E. coli killing, percentage of bacteria remaining in relation to the inoculum (E. coli 06; HLF 2000 ug/ml, lactate 0.2%, 5 h incubation): 5%
- E. coli killing, percentage of bacteria remaining in relation to the inoculum (E. coli 06; HLF 2000 ug/ml, lactate 1%, 5 h incubation): 9%
- E. coli killing, percentage of bacteria remaining in relation to the inoculum (E. coli 06; HLF 2000 ug/ml, lactate 5%, 2 h incubation): 0 (0 means that no CFU were found in triplicate samples of 5 ul (>99.95 killed of the inoculum))
- E. coli killing, percentage of bacteria remaining in relation to the inoculum (E. coli 06; HLF 2000 ug/ml, lactate 5%, 5 h incubation): 0 (0 means that no CFU were found in triplicate samples of 5 ul (>99.95 killed of the inoculum))
- E. coli killing, growth grade in droplet assay (E. coli 06; HLF 2000 ug/ml, no lactal, 2 h incubation): ++
- E. coli killing, percentage of bacteria remaining in relation to the inoculum (E. coli 06; HLF 2000 ug/ml, no lactal, 5 h incubation): 3%
- E. coli killing, growth grade in droplet assay (E. coli 06; HLF 5000 ug/ml, lactate 0.2%, 2 h incubation): ++
- E. coli killing, percentage of bacteria remaining in relation to the inoculum (E. coli 06; HLF 5000 ug/ml, lactate 0.2%, 5 h incubation): 0.4%
- E. coli killing, percentage of bacteria remaining in relation to the inoculum (E. coli 06; HLF 5000 ug/ml, lactate 1%, 5 h incubation): 16%
- E. coli killing, percentage of bacteria remaining in relation to the inoculum (E. coli 06; HLF 5000 ug/ml, lactate 5%, 2 h incubation): 0 (0 means that no CFU were found in triplicate samples of 5 ul (>99.95 killed of the inoculum))
- E. coli killing, percentage of bacteria remaining in relation to the inoculum (E. coli 06; HLF 5000 ug/ml, lactate 5%, 5 h incubation): 0 (0 means that no CFU were found in triplicate samples of 5 ul (>99.95 killed of the inoculum))
- E. coli killing, growth grade in droplet assay (E. coli 06; HLF 5000 ug/ml, no lactal, 2 h incubation): ++
- E. coli killing, percentage of bacteria remaining in relation to the inoculum (E. coli 06; HLF 5000 ug/ml, no lactal, 5 h incubation): 2%
- survival of L. gasseri (L. gasseri): 18%
- growth inhibition of P. bivia [1]: Growth inhibition
